Data on four molecules can be found in patent US20160017049A1 (Genentech, published 2016).

The target in experiment [1] is T1, human GPC3 N-terminal fragment, amino acids 25 to 358, with GPI link (human, UniProt P51654 25-358).
T1 construct: not shown: C-terminal glycophosphatidylinositol anchor (GPI link)
In words: Western blot probed with 7H1, lysate of stably transfected cells.

In experiment [2] the target is T2, human GPC3 C-terminal fragment, amino acids 359 to 560, with GPI link (human, UniProt P51654 359-560).
T2 construct: also called huGPC(aa359-560); not shown: C-terminal glycophosphatidylinositol anchor (GPI link)
T2 sequence: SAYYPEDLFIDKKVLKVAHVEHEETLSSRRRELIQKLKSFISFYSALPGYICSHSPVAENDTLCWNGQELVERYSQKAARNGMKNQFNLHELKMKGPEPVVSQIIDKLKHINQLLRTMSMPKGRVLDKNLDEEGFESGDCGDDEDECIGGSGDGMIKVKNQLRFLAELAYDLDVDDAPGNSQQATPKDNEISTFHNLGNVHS
In words: FACS on 293S cells expressing the C-terminal fragment of GPC3. The text has this: C-terminal truncation constructs of human GPC3 were made to further refine the epitopes for antibodies 7H1 and 4G7. […] The three C-terminal truncations each comprised the GPC N-terminal signal sequence (SS) and C-terminal glycophosphatidylinositol anchor (GPI link). […] See FIG. 7 (Santa Cruz Biotechnology antibody 1G12, which was raised to amino acids 511-580 of human GPC3, was used as a positive control for C-terminal fragment binding). Antibody 7H1 was reformatted as a chimeric antibody with human A118C cysteine-engineered IgG1 and Igκ constant regions (SEQ ID NOs: 42 and 43).

The target of experiment [3] is T3, human GPC3 C-terminal truncation, amino acids 25 to 247, with GPI link (human, UniProt P51654 25-247).
T3 construct: not shown: C-terminal glycophosphatidylinositol anchor (GPI link)
T3 sequence (P51654 25-247): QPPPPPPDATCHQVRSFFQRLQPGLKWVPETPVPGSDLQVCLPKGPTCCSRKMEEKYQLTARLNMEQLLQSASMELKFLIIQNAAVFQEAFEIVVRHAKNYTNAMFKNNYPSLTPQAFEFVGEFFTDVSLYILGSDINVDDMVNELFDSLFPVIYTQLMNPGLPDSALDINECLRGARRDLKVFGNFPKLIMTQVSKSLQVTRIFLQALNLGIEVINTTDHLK
In words: Western blot probed with 7H1, lysate of transiently transfected cells. Background: Immunoblotting shows a protein as a band on a membrane.

In experiment [4] the target is T4, human GPC3 C-terminal truncation, amino acids 25 to 137, with GPI link (human, UniProt P51654 25-137).
T4 construct: not shown: C-terminal glycophosphatidylinositol anchor (GPI link)
T4 sequence (P51654 25-137): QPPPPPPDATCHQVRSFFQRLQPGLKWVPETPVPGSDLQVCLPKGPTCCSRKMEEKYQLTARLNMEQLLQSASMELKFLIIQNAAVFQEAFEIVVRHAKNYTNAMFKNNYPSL
The experiment is described as above.

The target in a further experiment is T5, huGPC(aa359-509) (HSV; human).
T5 construct: Expressed on the surface of 293 cells; not shown: C-terminal glycophosphatidylinositol anchor (GPI link)
T5 chain: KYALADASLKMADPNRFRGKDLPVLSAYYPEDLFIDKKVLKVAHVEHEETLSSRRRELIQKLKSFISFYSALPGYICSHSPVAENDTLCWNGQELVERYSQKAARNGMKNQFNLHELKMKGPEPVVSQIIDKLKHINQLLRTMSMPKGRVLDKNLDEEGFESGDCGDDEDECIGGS
In words: FACS on 293 cells expressing the gD-tagged fragment. Here is the method:
(§1) C-terminal truncation constructs of huGPC(aa359-589) were made to further refine the epitopes for antibodies 4A11 and 15G1. […] The three C-terminal truncations each comprised an HSV N-terminal signal sequence (SS) and gD sequence (SEQ ID NO: 41) and C-terminal glycophosphatidylinositol anchor (GPI link). The huGPC truncation constructs were expressed on the surface of 293 cells and antibody binding was determined by FACS. An anti-gD was used as a positive control. Vector-transfected 293 cells were used as a negative control.

A further experiment deals with T6, huGPC(aa359-559) (human, UniProt P51654 359-559).
T6 construct: Expressed on the surface of 293 cells
T6 sequence: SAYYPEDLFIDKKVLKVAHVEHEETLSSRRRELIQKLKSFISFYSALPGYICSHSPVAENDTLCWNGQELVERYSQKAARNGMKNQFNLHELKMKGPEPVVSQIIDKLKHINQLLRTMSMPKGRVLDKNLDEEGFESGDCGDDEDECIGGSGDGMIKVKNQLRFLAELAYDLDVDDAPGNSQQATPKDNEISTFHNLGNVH
The description is as above. The procedure:
as §1

In another experiment the target is T7, huGPC(aa359-470) (HSV; human).
T7 construct: Expressed on the surface of 293 cells; not shown: C-terminal glycophosphatidylinositol anchor (GPI link)
T7 chain: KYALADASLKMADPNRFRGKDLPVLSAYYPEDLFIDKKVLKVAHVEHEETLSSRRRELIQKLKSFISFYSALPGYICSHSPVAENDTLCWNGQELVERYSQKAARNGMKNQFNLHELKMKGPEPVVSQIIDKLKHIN
The experiment is described as above. Here is the method:
as §1

T1 sequence (P51654 25-358): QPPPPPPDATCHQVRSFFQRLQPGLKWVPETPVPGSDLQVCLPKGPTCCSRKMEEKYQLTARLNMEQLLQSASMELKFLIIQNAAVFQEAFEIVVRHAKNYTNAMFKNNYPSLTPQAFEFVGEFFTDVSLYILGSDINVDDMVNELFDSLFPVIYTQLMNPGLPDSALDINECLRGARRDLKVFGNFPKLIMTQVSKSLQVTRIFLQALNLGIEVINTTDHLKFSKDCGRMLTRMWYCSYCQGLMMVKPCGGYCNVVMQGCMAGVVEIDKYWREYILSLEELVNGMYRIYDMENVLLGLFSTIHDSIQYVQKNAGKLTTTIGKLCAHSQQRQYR

B1: antibody 7H1 (antibody, V domains shown)
VH: QVQLQQSGPELVKPGASVKISCKASGYTFTDYYINWVKQKPGQGLEWIGWIYPGSGHTECNETFKGKATLTVDTSSSTAYMQLSSLTSEDTAVYFCTRGYYAPMGYFDYWGQGTTLTVSS
VL: DIQMTQSPSSLSASLGERVSLTCRASQEISGYLSWLQQKPDGTIKRLIYAASTLDSGVPKRFSGSRSGSDYSLTISGLESEDFADYYCLQYASYPYTFGGGTKLEIK
notes: Mouse monoclonal from Balb/c mice immunised with huGPC3 ECD-Flag
With B1, the binding result was “binds” in experiment [1], “no binding” in experiment [2], “binds” in experiment [3] and “binds” in experiment [4].

B2: antibody 4G7 (antibody, V domains shown)
VH: EVQLQQSGTVLARPGASVKMSCKASGYTFTSYWVHWVKQRPGQGLEWIGAIYPGNIDASYNQKFKGKAKLTAVTSTSTAYMELSSLTNEDSAVYYCSYDYDAWFVYWGQGTLVTVSA
VL: DIQMTQSHKFMSTSVGDRVSITCKASQDVSTAVAWYQQKPGQSPTLLIYSASYRYTGVPDRFTGSGSGTDFTFTISSVQAEDLAVYYCQQHYFTPRTFGGGTKLELK
Regarding B2, the binding result in experiment [2] is “no binding”.

B3: antibody 4A11 (antibody, human IgG1, kappa)
heavy: not shown
light: DIVMTQSPSSMYASLGERVTITCKASQDINSYLSWFQQKPGKSPKTLIYRVNRLVDGVPSRFSGSGSGQDYSLTISSLEYEDVGIYYCLQYDEFPLTLGAGTKLELKRTVAAPSVFIFPPSDEQLKSGTASVVCLLNNFYPREAKVQWKVDNALQSGNSQESVTEQDSKDSTYSLSSTLTLSKADYEKHKVYACEVTHQGLSSPVTKSFNRGEC
notes: also called 4A11 thio-HC A118C
As for B3, the binding result with huGPC(aa359-509) and in the experiment with huGPC(aa359-559) was “binds” in each case.

B4: antibody 15G1 (antibody, human IgG1, kappa, V domains shown)
VH: EVQLLETGGGLVQPGGSRGLSCEGSGFTFSGFWMSWVRQTPGKTLEWIGDINSDGSSINYAPSIKDRFTIFRDNDKSILYLQMTNVRSEDTGTYFCVTTYGDYWGQGTTLTVSS
VL: DIVMTQSQKFMSTSVGDRVSVTCKASQNVGSHVGWYQQKSGQSPKALIYSASNRYIGVPDRFTGSGSGTDFTLTISNVQSEDLAEYFCQQYHIYPYTFGGGTRLEIKR
notes: also called 15G1 thio-HC A118C
Consider B4, for which the binding result with huGPC(aa359-470), with huGPC(aa359-509) and in the experiment with huGPC(aa359-559) was “binds” each time.
